{"source": "patent US10064928B2", "about": "“Peptides and combination of peptides for use in immunotherapy against CLL and other cancers” (IMMATICS BIOTECHNOLOGIES GMBH, priority 2015, dated 2018)", "data": [{"molecular_target": "HLA-A*02:01 (Homo sapiens, UniProt P04439, D140Y/D185E/D98H/E176V/E277Q/G131W/G231S/I119V/I121R/I166T/I218V/L300P/L318F/N151K/N90K/P208A/P217A/Q86G/Q94H/R138H/R169H/T345S)", "assay": "MHC binding assay (UV-ligand exchange, beta2m ELISA)", "conditions": "binding of HLA-class I restricted peptides to HLA-A*02:01, β2m ELISA", "excerpt": "Candidate peptides for T cell based therapies according to the present invention were further tested for their MHC binding capacity (affinity). The individual peptide-MHC complexes were produced by UV-ligand exchange, where a UV-sensitive peptide is cleaved upon UV-irradiation, and exchanged with the peptide of interest as analyzed. Only peptide candidates that can effectively bind and stabilize the peptide-receptive MHC molecules prevent dissociation of the MHC complexes. To determine the yield of the exchange reaction, an ELISA was performed based on the detection of the light chain (β2m) of stabilized MHC complexes. The assay was performed as generally described in Rodenko et al. (Rodenko et al., 2006).\n96 well MAXISorp plates (NUNC) were coated over night with 2 ug/ml streptavidin in PBS at room temperature, washed 4× and blocked for 1 h at 37° C. in 2% BSA containing blocking buffer. Refolded HLA-A*02:01/MLA-001 monomers served as standards, covering the range of 15-500 ng/ml. Peptide-MHC monomers of the UV-exchange reaction were diluted 100 fold in blocking buffer. Samples were incubated for 1 h at 37° C., washed four times, incubated with 2 ug/ml HRP conjugated anti-β2m for 1 h at 37° C., washed again and detected with TMB solution that is stopped with […]. Absorption was measured at 450 nm. Candidate peptides that show a high exchange yield (preferably higher than 50%, most preferred higher than 75%) are generally preferred for a generation and production of antibodies or fragments thereof, and/or T cell receptors or fragments thereof, as they show sufficient avidity to the MHC molecules and prevent dissociation of the MHC complexes.", "values": [{"substance": "365 (LISPLLLPV; listed as Homo sapiens) [compound 365]", "Peptide Exchange (MHC class I binding score, peptide exchange yield)": "“+++” (≥50 = +++)"}, {"substance": "303 (ILSQPTPSL; listed as Homo sapiens) [compound 303]", "Peptide Exchange (MHC class I binding score, peptide exchange yield)": "“+++” (≥50 = +++)"}, {"substance": "299 (ILEENIPVL; listed as Homo sapiens) [compound 299]", "Peptide Exchange (MHC class I binding score, peptide exchange yield)": "“+++” (≥50 = +++)"}, {"substance": "162 (SMKDDLENV; listed as Homo sapiens) [compound 162]", "Peptide Exchange (MHC class I binding score, peptide exchange yield)": "“++” (≥20% = ++)"}, {"substance": "94 (ILFPLRFTL; listed as Homo sapiens) [compound 94]", "Peptide Exchange (MHC class I binding score, peptide exchange yield)": "“+++” (≥50 = +++)"}, {"substance": "34 (YLPYIFPNI; listed as Homo sapiens) [compound 34]", "Peptide Exchange (MHC class I binding score, peptide exchange yield)": "“+++” (≥50 = +++)"}, {"substance": "174 (VLAELPIIVV; listed as Homo sapiens) [compound 174]", "Peptide Exchange (MHC class I binding score, peptide exchange yield)": "“+++” (≥50 = +++)"}, {"substance": "324 (SLYSALQQA; listed as Homo sapiens) [compound 324]", "Peptide Exchange (MHC class I binding score, peptide exchange yield)": "“+++” (≥50 = +++)"}, {"substance": "41 (FLDPSLDPLL; listed as Homo sapiens) [compound 41]", "Peptide Exchange (MHC class I binding score, peptide exchange yield)": "“+++” (≥50 = +++)"}, {"substance": "241 (ILGDILLKV; listed as Homo sapiens) [compound 241]", "Peptide Exchange (MHC class I binding score, peptide exchange yield)": "“+++” (≥50 = +++)"}, {"substance": "121 (RLYEITIEV; listed as Homo sapiens) [compound 121]", "Peptide Exchange (MHC class I binding score, peptide exchange yield)": "“++++” (≥75% = ++++)"}, {"substance": "376 (VLYNQRVEEI; listed as Homo sapiens) [compound 376]", "Peptide Exchange (MHC class I binding score, peptide exchange yield)": "“+++” (≥50 = +++)"}, {"substance": "245 (KIMDYSLLLGV; listed as Homo sapiens) [compound 245]", "Peptide Exchange (MHC class I binding score, peptide exchange yield)": "“++++” (≥75% = ++++)"}, {"substance": "31 (ELMHGVAGV; listed as Homo sapiens) [compound 31]", "Peptide Exchange (MHC class I binding score, peptide exchange yield)": "“+++” (≥50 = +++)"}, {"substance": "78 (GLPSFLTEV; listed as Homo sapiens) [compound 78]", "Peptide Exchange (MHC class I binding score, peptide exchange yield)": "“+++” (≥50 = +++)"}, {"substance": "379 (YLAELVTPIL; listed as Homo sapiens) [compound 379]", "Peptide Exchange (MHC class I binding score, peptide exchange yield)": "“+++” (≥50 = +++)"}, {"substance": "286 (FLLEDLSQKL; listed as Homo sapiens) [compound 286]", "Peptide Exchange (MHC class I binding score, peptide exchange yield)": "“+++” (≥50 = +++)"}, {"substance": "215 (VMQDIVYKL; listed as Homo sapiens) [compound 215]", "Peptide Exchange (MHC class I binding score, peptide exchange yield)": "“+++” (≥50 = +++)"}, {"substance": "6 (ALDTLEDDMTI; listed as Homo sapiens) [compound 6]", "Peptide Exchange (MHC class I binding score, peptide exchange yield)": "“+++” (≥50 = +++)"}, {"substance": "51 (FLVEAPHDWDL; listed as Homo sapiens) [compound 51]", "Peptide Exchange (MHC class I binding score, peptide exchange yield)": "“++++” (≥75% = ++++)"}, {"substance": "186 (VMDPTKILI; listed as Homo sapiens) [compound 186]", "Peptide Exchange (MHC class I binding score, peptide exchange yield)": "“++++” (≥75% = ++++)"}, {"substance": "217 (ALDEPPYLTV; listed as Homo sapiens) [compound 217]", "Peptide Exchange (MHC class I binding score, peptide exchange yield)": "“+++” (≥50 = +++)"}, {"substance": "339 (GLWGTVVNI; listed as Homo sapiens) [compound 339]", "Peptide Exchange (MHC class I binding score, peptide exchange yield)": "“+++” (≥50 = +++)"}, {"substance": "47 (FLSDQPEPYL; listed as Homo sapiens) [compound 47]", "Peptide Exchange (MHC class I binding score, peptide exchange yield)": "“++” (≥20% = ++)"}, {"substance": "122 (LLIPVVPGV; listed as Homo sapiens) [compound 122]", "Peptide Exchange (MHC class I binding score, peptide exchange yield)": "“+++” (≥50 = +++)"}, {"substance": "11 (ALFTFSPLTV; listed as Homo sapiens) [compound 11]", "Peptide Exchange (MHC class I binding score, peptide exchange yield)": "“+++” (≥50 = +++)"}, {"substance": "225 (ILQERELLPV; listed as Homo sapiens) [compound 225]", "Peptide Exchange (MHC class I binding score, peptide exchange yield)": "“+++” (≥50 = +++)"}, {"substance": "91 (ILDLNTYNV; listed as Homo sapiens) [compound 91]", "Peptide Exchange (MHC class I binding score, peptide exchange yield)": "“+++” (≥50 = +++)"}, {"substance": "87 (HQIEAVDGEEL; listed as Homo sapiens) [compound 87]", "Peptide Exchange (MHC class I binding score, peptide exchange yield)": "“++” (≥20% = ++)"}, {"substance": "146 (SIIEGPIIKL; listed as Homo sapiens) [compound 146]", "Peptide Exchange (MHC class I binding score, peptide exchange yield)": "“+++” (≥50 = +++)"}, {"substance": "355 (FIWPMLIHI; listed as Homo sapiens) [compound 355]", "Peptide Exchange (MHC class I binding score, peptide exchange yield)": "“+++” (≥50 = +++)"}, {"substance": "342 (SLITPLQAV; listed as Homo sapiens) [compound 342]", "Peptide Exchange (MHC class I binding score, peptide exchange yield)": "“+++” (≥50 = +++)"}, {"substance": "334 (YLLEEKIASL; listed as Homo sapiens) [compound 334]", "Peptide Exchange (MHC class I binding score, peptide exchange yield)": "“+++” (≥50 = +++)"}, {"substance": "64 (KLLESVASA; listed as Homo sapiens) [compound 64]", "Peptide Exchange (MHC class I binding score, peptide exchange yield)": "“+++” (≥50 = +++)"}, {"substance": "316 (MLLEHGITL; listed as Homo sapiens) [compound 316]", "Peptide Exchange (MHC class I binding score, peptide exchange yield)": "“+++” (≥50 = +++)"}, {"substance": "354 (FIMDDPAGNSYL; listed as Homo sapiens) [compound 354]", "Peptide Exchange (MHC class I binding score, peptide exchange yield)": "“+++” (≥50 = +++)"}, {"substance": "3 (VIAELPPKV; listed as Homo sapiens) [compound 3]", "Peptide Exchange (MHC class I binding score, peptide exchange yield)": "“++” (≥20% = ++)"}, {"substance": "349 (ALATHILSL; listed as Homo sapiens) [compound 349]", "Peptide Exchange (MHC class I binding score, peptide exchange yield)": "“+++” (≥50 = +++)"}, {"substance": "383 (YLLREWVNL; listed as Homo sapiens) [compound 383]", "Peptide Exchange (MHC class I binding score, peptide exchange yield)": "“++++” (≥75% = ++++)"}, {"substance": "232 (FMHQIIDQV; listed as Homo sapiens) [compound 232]", "Peptide Exchange (MHC class I binding score, peptide exchange yield)": "“++++” (≥75% = ++++)"}, {"substance": "360 (HLIDTNKIQL; listed as Homo sapiens) [compound 360]", "Peptide Exchange (MHC class I binding score, peptide exchange yield)": "“+++” (≥50 = +++)"}, {"substance": "142 (QLDEPAPQV; listed as Homo sapiens) [compound 142]", "Peptide Exchange (MHC class I binding score, peptide exchange yield)": "“++” (≥20% = ++)"}, {"substance": "135 (MTAGFSTIAGSV; listed as Homo sapiens) [compound 135]", "Peptide Exchange (MHC class I binding score, peptide exchange yield)": "“+” (≥10% = +)"}, {"substance": "43 (FLLGPEALSFA; listed as Homo sapiens) [compound 43]", "Peptide Exchange (MHC class I binding score, peptide exchange yield)": "“++++” (≥75% = ++++)"}, {"substance": "263 (SQWEDIHVV; listed as Homo sapiens) [compound 263]", "Peptide Exchange (MHC class I binding score, peptide exchange yield)": "“+++” (≥50 = +++)"}, {"substance": "175 (FTVPRVVAV; listed as Homo sapiens) [compound 175]", "Peptide Exchange (MHC class I binding score, peptide exchange yield)": "“+++” (≥50 = +++)"}, {"substance": "344 (VLAFENPQV; listed as Homo sapiens) [compound 344]", "Peptide Exchange (MHC class I binding score, peptide exchange yield)": "“+++” (≥50 = +++)"}, {"substance": "152 (SLIRILQTI; listed as Homo sapiens) [compound 152]", "Peptide Exchange (MHC class I binding score, peptide exchange yield)": "“+++” (≥50 = +++)"}, {"substance": "39 (FLDALLTDV; listed as Homo sapiens) [compound 39]", "Peptide Exchange (MHC class I binding score, peptide exchange yield)": "“+++” (≥50 = +++)"}, {"substance": "373 (TLLADQGEIRV; listed as Homo sapiens) [compound 373]", "Peptide Exchange (MHC class I binding score, peptide exchange yield)": "“++” (≥20% = ++)"}, {"substance": "179 (VLLGLEMTL; listed as Homo sapiens) [compound 179]", "Peptide Exchange (MHC class I binding score, peptide exchange yield)": "“+++” (≥50 = +++)"}, {"substance": "255 (YLFEEAISM; listed as Homo sapiens) [compound 255]", "Peptide Exchange (MHC class I binding score, peptide exchange yield)": "“+++” (≥50 = +++)"}, {"substance": "249 (LLPTGVFQV; listed as Homo sapiens) [compound 249]", "Peptide Exchange (MHC class I binding score, peptide exchange yield)": "“+++” (≥50 = +++)"}, {"substance": "300 (ILLNPAYDVYL; listed as Homo sapiens) [compound 300]", "Peptide Exchange (MHC class I binding score, peptide exchange yield)": "“+++” (≥50 = +++)"}, {"substance": "309 (ILYGTQFVL; listed as Homo sapiens) [compound 309]", "Peptide Exchange (MHC class I binding score, peptide exchange yield)": "“+++” (≥50 = +++)"}, {"substance": "385 (YTIPLAIKL; listed as Homo sapiens) [compound 385]", "Peptide Exchange (MHC class I binding score, peptide exchange yield)": "“+++” (≥50 = +++)"}]}]}
